Results from the supplement of paper PMC6755084.

Tested on: F1*sub RNA substrate (template-directed ligation)
Assay: fraction ligated after 30 min (ligated reads / total reads); higher = more ligase activity; sequences stand for … in GAGACCGCAACTGAAAAGTTGT…AGTTCTGCACGTAGAAGCAAAAGGC
Conditions: 42 °C
Protocol: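 Chip-synthesised pool of F1* ligase ribozyme variants (all single and double substitutions, single, double and triple deletions in the catalytic core and GAA bulge, plus designed variants) was transcribed with T7 and reacted as a pool with excess substrate F1*sub for 30 min at 42 C in 50 mM EPPS pH 8.5, 25 mM MgCl2. Ligated and unligated bands were separated by PAGE, barcoded by RT and deep sequenced; fraction ligated = ligated reads / total reads per variant, relative activity = FL / FL of wild type (0.826). Sequences are the DNA template of the ribozyme.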

Row | Sequence | fraction ligated
1 | TACACTTGTCGTAAGACATTTGGTGGGTTGA [3d709] | 0.0505
2 | TACACTTGTCGTAAGACCTTGGATGGGTTGA [3d700] | 0.222
3 | TACACTTGTCGTAAGACCTTTGATGGGTTGA [3d701] | 0.0781
4 | TACACTTGTCGTAAGACCTTTGGAGGGTTGA [3d703] | 0.0299
5 | TACACTTGTCGTAAGACCTTTGGATGGGTTA [3d705] | 0.136
6 | TACACTTGTCGTAAGACCTTTGGATGGGTTG [3d706] | 0.659
7 | TACACTTGTCGTAAGACCTTTGGATGGGTTGA [2d60] | 0.625
8 | TACACTTGTCGTAAGACCTTTGGATGGTTGA [3d704] | 0.358
9 | TACACTTGTCGTAAGACCTTTGGTGGGTTGA [3d702] | 0.138
10 | TACACTTGTCGTAAGACTTTGGATGGGTTGA [3d682] | 0.409
11 | TACACTTGTCGTAAGCACTTGGATGGGTTGA [3d685] | 0.0451
12 | TACACTTGTCGTAAGCACTTTGATGGGTTGA [3d686] | 0.0278
13 | TACACTTGTCGTAAGCACTTTGGAGGGTTGA [3d688] | 0.0515
14 | TACACTTGTCGTAAGCACTTTGGATGGGTTA [3d690] | 0.0198
15 | TACACTTGTCGTAAGCACTTTGGATGGGTTG [3d691] | 0.151
16 | TACACTTGTCGTAAGCACTTTGGATGGGTTGA [2d58] | 0.183
17 | TACACTTGTCGTAAGCACTTTGGATGGTTGA [3d689] | 0.101
18 | TACACTTGTCGTAAGCACTTTGGTGGGTTGA [3d687] | 0.114
19 | TACACTTGTCGTAAGCATTTGGATGGGTTGA [3d684] | 0.453
20 | TACACTTGTCGTAAGCCTTTGGATGGGTTGA [3d683] | 0.0763
21 | TACACTTGTCGTAGAACTTTGGATGGGTTGA [3d662] | 0.145
22 | TACACTTGTCGTAGACACTTGGATGGGTTGA [3d665] | 0.101

Row | Sequence | fraction ligated
23 | TACACTTGTCGTAGACACTTTGATGGGTTGA [3d666] | 0.0743
24 | TACACTTGTCGTAGACACTTTGGAGGGTTGA [3d668] | 0.146
25 | TACACTTGTCGTAGACACTTTGGATGGGTTA [3d670] | 0.0913
26 | TACACTTGTCGTAGACACTTTGGATGGGTTG [3d671] | 0.514
27 | TACACTTGTCGTAGACACTTTGGATGGGTTGA [2d56] | 0.617
28 | TACACTTGTCGTAGACACTTTGGATGGTTGA [3d669] | 0.524
29 | TACACTTGTCGTAGACACTTTGGTGGGTTGA [3d667] | 0.0835
30 | TACACTTGTCGTAGACATTTGGATGGGTTGA [3d664] | 0.464
31 | TACACTTGTCGTAGACCTTTGGATGGGTTGA [3d663] | 0.173
32 | TACACTTGTCGTAGCACTTTGGATGGGTTGA [3d661] | 0.0075
33 | TACACTTGTCGTGACACTTTGGATGGGTTGA [3d659] | 0.0318
34 | TACACTTGTCTAAACACTTTGGATGGGTTGA [3d634] | 0.177
35 | TACACTTGTCTAAGAACTTTGGATGGGTTGA [3d636] | 0.116
36 | TACACTTGTCTAAGACACTTGGATGGGTTGA [3d639] | 0.087
37 | TACACTTGTCTAAGACACTTTGATGGGTTGA [3d640] | 0.0986
38 | TACACTTGTCTAAGACACTTTGGAGGGTTGA [3d642] | 0.115
39 | TACACTTGTCTAAGACACTTTGGATGGGTTA [3d644] | 0.131
40 | TACACTTGTCTAAGACACTTTGGATGGGTTG [3d645] | 0.595
41 | TACACTTGTCTAAGACACTTTGGATGGGTTGA [2d54] | 0.609
42 | TACACTTGTCTAAGACACTTTGGATGGTTGA [3d643] | 0.449
43 | TACACTTGTCTAAGACACTTTGGTGGGTTGA [3d641] | 0.124
44 | TACACTTGTCTAAGACATTTGGATGGGTTGA [3d638] | 0.457

Row | Sequence | fraction ligated
45 | TACACTTGTCTAAGACCTTTGGATGGGTTGA [3d637] | 0.0809
46 | TACACTTGTCTAAGCACTTTGGATGGGTTGA [3d635] | 0.142
47 | TACACTTGTCTAGACACTTTGGATGGGTTGA [3d633] | 0.195
48 | TACACTTGTGAAGACACTTTGGATGGGTTGA [3d618] | 0.345
49 | TACACTTGTGTAAACACTTTGGATGGGTTGA [3d620] | 0.0848
50 | TACACTTGTGTAAGAACTTTGGATGGGTTGA [3d622] | 0.00557
51 | TACACTTGTGTAAGACACTTGGATGGGTTGA [3d625] | 0.0347
52 | TACACTTGTGTAAGACACTTTGATGGGTTGA [3d626] | 0.0413
53 | TACACTTGTGTAAGACACTTTGGAGGGTTGA [3d628] | 0.0881
54 | TACACTTGTGTAAGACACTTTGGATGGGTTA [3d630] | 0.0333
55 | TACACTTGTGTAAGACACTTTGGATGGGTTG [3d631] | 0.145
56 | TACACTTGTGTAAGACACTTTGGATGGGTTGA [2d53] | 0.243
57 | TACACTTGTGTAAGACACTTTGGATGGTTGA [3d629] | 0.141
58 | TACACTTGTGTAAGACACTTTGGTGGGTTGA [3d627] | 0.134
59 | TACACTTGTGTAAGACATTTGGATGGGTTGA [3d624] | 0.392
60 | TACACTTGTGTAAGACCTTTGGATGGGTTGA [3d623] | 0.0441
61 | TACACTTGTGTAAGCACTTTGGATGGGTTGA [3d621] | 0.101
62 | TACACTTGTGTAGACACTTTGGATGGGTTGA [3d619] | 0.0703
63 | TACACTTGTTAAGACACTTTGGATGGGTTGA [3d617] | 0.244
64 | TACACTTTCGAAGACACTTTGGATGGGTTGA [3d587] | 0.0357
65 | TACACTTTCGTAAACACTTTGGATGGGTTGA [3d589] | 0.0248
66 | TACACTTTCGTAAGAACTTTGGATGGGTTGA [3d591] | 0.0829

Row | Sequence | fraction ligated
67 | TACACTTTCGTAAGACACTTGGATGGGTTGA [3d594] | 0.0252
68 | TACACTTTCGTAAGACACTTTGATGGGTTGA [3d595] | 0.0271
69 | TACACTTTCGTAAGACACTTTGGAGGGTTGA [3d597] | 0.0439
70 | TACACTTTCGTAAGACACTTTGGATGGGTTA [3d599] | 0.00822
71 | TACACTTTCGTAAGACACTTTGGATGGGTTG [3d600] | 0.0259
72 | TACACTTTCGTAAGACACTTTGGATGGGTTGA [2d51] | 0.0483
73 | TACACTTTCGTAAGACACTTTGGATGGTTGA [3d598] | 0.0486
74 | TACACTTTCGTAAGACACTTTGGTGGGTTGA [3d596] | 0.0156
75 | TACACTTTCGTAAGACATTTGGATGGGTTGA [3d593] | 0.292
76 | TACACTTTCGTAAGACCTTTGGATGGGTTGA [3d592] | 0.0278
77 | TACACTTTCGTAAGCACTTTGGATGGGTTGA [3d590] | 0.0355
78 | TACACTTTCGTAGACACTTTGGATGGGTTGA [3d588] | 0.0222
79 | TACACTTTCTAAGACACTTTGGATGGGTTGA [3d586] | 0.0445
80 | TACACTTTGTAAGACACTTTGGATGGGTTGA [3d585] | 0.0938
81 | TACATGTCGTAAGACACTTTGGATGGGTTGA [3d547] | 0.16
82 | TACATTGCGTAAGACACTTTGGATGGGTTGA [3d549] | 0.0211
83 | TACATTGTCGAAGACACTTTGGATGGGTTGA [3d552] | 0.0671
84 | TACATTGTCGTAAACACTTTGGATGGGTTGA [3d554] | 0.0244
85 | TACATTGTCGTAAGAACTTTGGATGGGTTGA [3d556] | 0.0064
86 | TACATTGTCGTAAGACACTTGGATGGGTTGA [3d559] | 0.19
87 | TACATTGTCGTAAGACACTTTGATGGGTTGA [3d560] | 0.232
88 | TACATTGTCGTAAGACACTTTGGAGGGTTGA [3d562] | 0.16

Row | Sequence | fraction ligated
89 | TACATTGTCGTAAGACACTTTGGATGGGTTA [3d564] | 0.0607
90 | TACATTGTCGTAAGACACTTTGGATGGGTTG [3d565] | 0.163
91 | TACATTGTCGTAAGACACTTTGGATGGGTTGA [2d49] | 0.223
92 | TACATTGTCGTAAGACACTTTGGATGGTTGA [3d563] | 0.303
93 | TACATTGTCGTAAGACACTTTGGTGGGTTGA [3d561] | 0.144
94 | TACATTGTCGTAAGACATTTGGATGGGTTGA [3d558] | 0.298
95 | TACATTGTCGTAAGACCTTTGGATGGGTTGA [3d557] | 0.214
96 | TACATTGTCGTAAGCACTTTGGATGGGTTGA [3d555] | 0.041
97 | TACATTGTCGTAGACACTTTGGATGGGTTGA [3d553] | 0.0879
98 | TACATTGTCTAAGACACTTTGGATGGGTTGA [3d551] | 0.0666
99 | TACATTGTGTAAGACACTTTGGATGGGTTGA [3d550] | 0.0317
100 | TACATTTCGTAAGACACTTTGGATGGGTTGA [3d548] | 0.0271
101 | TACCTGTCGTAAGACACTTTGGATGGGTTGA [3d528] | 0.655
102 | TACCTTGCGTAAGACACTTTGGATGGGTTGA [3d530] | 0.392
103 | TACCTTGTCGAAGACACTTTGGATGGGTTGA [3d533] | 0.676
104 | TACCTTGTCGTAAACACTTTGGATGGGTTGA [3d535] | 0.418
105 | TACCTTGTCGTAAGAACTTTGGATGGGTTGA [3d537] | 0.253
106 | TACCTTGTCGTAAGACACTTGGATGGGTTGA [3d540] | 0.746
107 | TACCTTGTCGTAAGACACTTTGATGGGTTGA [3d541] | 0.304
108 | TACCTTGTCGTAAGACACTTTGGAGGGTTGA [3d543] | 0.24
109 | TACCTTGTCGTAAGACACTTTGGATGGGTTA [3d545] | 0.548
